In PMC12544700, “Identification of a Small Secretoneurin Derivative That Inhibits CaMKIIδ Activity” (Journal of Cellular and Molecular Medicine, 2025):

How the values were obtained:
CaMKIIδ (Homo sapiens) = CaMKIIδ (Homo sapiens) (UniProt Q13557); conditions: cited from earlier work
[1] = target: biotinylated SN‐db‐short [SN (7–26, L17F, V20F)] (human); assay: SPR; Biacore X100, room temperature; biotin‐ahx‐SN‐db‐short immobilised on a streptavidin chip (58 RU); His‐CaMKIIδ‐T287D 0.06–1 μM injected, single‐cycle; HEPES running buffer with 2.5 mM Ca2+; 1:1 Langmuir fit; average of three experiments

Chain of CaMKIIδ (Homo sapiens) (Q13557 2-499, stated change not applied): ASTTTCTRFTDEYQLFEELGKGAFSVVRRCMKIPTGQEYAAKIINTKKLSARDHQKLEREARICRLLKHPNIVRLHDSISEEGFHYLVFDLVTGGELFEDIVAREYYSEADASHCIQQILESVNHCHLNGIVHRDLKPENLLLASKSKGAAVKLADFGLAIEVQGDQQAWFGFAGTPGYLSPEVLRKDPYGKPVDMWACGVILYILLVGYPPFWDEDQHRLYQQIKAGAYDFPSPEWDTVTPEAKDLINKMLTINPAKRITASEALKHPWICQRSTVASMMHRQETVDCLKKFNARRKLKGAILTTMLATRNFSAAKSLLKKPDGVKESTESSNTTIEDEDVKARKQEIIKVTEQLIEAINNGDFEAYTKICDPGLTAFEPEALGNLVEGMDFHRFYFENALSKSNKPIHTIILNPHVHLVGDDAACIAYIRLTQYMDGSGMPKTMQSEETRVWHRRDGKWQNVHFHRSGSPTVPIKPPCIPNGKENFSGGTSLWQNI
Chain of Secretoneurin (P13521 182-214): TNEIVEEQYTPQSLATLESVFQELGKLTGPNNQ

For Secretoneurin (from UniProt P13521), the Kd (CaMKIIδ (Homo sapiens)) is listed as 80 nM.
Work on “recombinant His‐CaMKIIδ‐T287D (species not named for the experiment) (from UniProt P15791 1-533) (enzyme)” yielded a Kd [1] of 68 nM, a koff [1] of 0.00057 s⁻¹ and a kon [1] of 14000 M⁻¹ s⁻¹.
